Test results as given in paper PMC2788528.

Target: CEACAM3 WT-HA-CyPet, tyrosine-phosphorylated (coexpressed with v-Src) (UniProt P40198)
Test: FRET or BRET; flow cytometric FRET in intact cotransfected 293T cells (with or without v-Src); CyPet and YPet double-positive cells gated; FRET channel excitation 405 nm, emission 525/50 nm; LSR II

Chain of UniProt P40198 (P40198 35-252): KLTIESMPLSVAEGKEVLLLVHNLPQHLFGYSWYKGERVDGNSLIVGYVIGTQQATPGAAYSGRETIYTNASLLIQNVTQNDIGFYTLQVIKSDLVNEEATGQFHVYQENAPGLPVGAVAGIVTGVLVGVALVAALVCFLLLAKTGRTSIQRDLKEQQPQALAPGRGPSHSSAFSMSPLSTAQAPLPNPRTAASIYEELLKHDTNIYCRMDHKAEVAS

fold increase in the mean fluorescence intensity in the FRET channel: 4 fold
Substance: YPet-Hck-SH2 (SH2 domain of human Hck fused to YPet) (from UniProt P08631 144-241) (domain or fragment)
